This data set is described as follows: soluble on expression in E. coli; label from the status in PepcDB or PDB records.
“FLLPPSTACCTQLYRKPLSDKLLRKVIQVELQEADGDCHLQAFVLHLAQRSICIHPQNPSLSQWFEHQERKLHGTLPKLNFGMLRKMG”: the “soluble on expression in E. coli” value was “soluble”. In the case of “FLQNAVILGATENGLRLAEYLLEHQDIRSGVIGFIDDRIGRMPKTVANLPLLGNTSDLERLIREEKVTQVLVALPWTAENRMDYIIRELRRLPVNVLLVPDMIAFRHT” it was “not soluble”; in that of “FSKTQRWAEPGEPICVVCGRYGEYICDKTDEDVCSLECKAKHLLQVKEKEEKS”, “soluble”; in that of “FSSALTSKDAARLADETDNIAEALRAAETEGVALQDMLQAYLPANGMVRVVNGDQKAVMTITKEKAYKDFPLSFHSGETADVRKPDGKLFAEAAVPVIWTDGQVVSLQLVERLENTEESLFLLK”, “not soluble”. In the case of “FSVEELSEILESHSIRLELQPILELETGRVGAAEGLLRINLDGTDVPTGQFVQSVEQAGLAPKLDIAVMREGINHIERLRAVCPTFSLALNLSGYSLSSAKIREELRAEFRARDLPRGSIRFEITETAPIEDIDAAKEFVQMLKDFGFHIVIDDFGAGHEPYQYLKKFDFSVLKIAGEFIEGMVTNRVDRSIVESIAQLAKDEEMETVAEFVSSKEILEAVREIGVTYAQGFHIGKSKPIDEFIATYLETNQTATWG” it was “not soluble”. Under “FYDPLVFPSDEFDASISQVNEKINQSLAFIRKSDELLHNVNAG” stands “soluble”; under “GAKPERGRFLHFHSVTFWVGNAKQAASFYCSKMGFEPLAYRGLETGSREVVSHVIKQGKIVFVLSSALNPWNKEMGDHLVKHGDGVKDIAFEVEDCDYIVQKARERGAKIMREPWVEQDKFGKVKFAVLQTYGDTTHTLVEKMNYIGQFLPGYEAPAFMDPLLPKLPKCSLEMIDHIVGNQPDQEMVSASEWYLKNLQFHRFWSVDDTQVHTEYSSLRSIVVANYEESIKMPINEPAPGKKKSQIQEYVDYNGGAGVQHIALKTEDIITAIRHLRERGLEFLSVPSTYYKQLREKLKTAKIKVKENIDALEELKILVDYDEKGYLLQIFTKPVQDRPTLFLEVIQRHNHQGFGAGNFNSLFKAFEEEQNLRGNLTNMETNGVVPGMAENLYFQ”, “soluble”; under “GAMAEYEIDEITFHKRLGILLTSWKNEEDGKTLFQDCDSILVTVGAHDDTNPYQKSTALHTWLLGYEFPSTLILLEKHRITILTSVNKANMLTKLAETKGAAADVNILKRTKDAEENKKLFEKIIEYIRATNKKVGVFPKDKTQGKFINEWDSIFEPVKSEFNLVDASLGLAKCLAIKDEQELANIKGASRVSVAVMSKYFVDELSTYIDQGKKITHSKFSDQMESLIDNEAFFQTKSLKLGDIDLDQLEWCYTPIIQSGGSYDLKPSAITDDRNLHGDVVLCSLGFRYKSYCSNVGRTYLFDPDSEQQKNYSFLVALQKKLFEYCRDGAVIGDIYTKILGLIRAKRPDLEPNFVRNLGAGIGIEFRESSLLVNAKNPRVLQAGMTLNLSIGFGNLINPHPKNSQSKEYALLLIDTIQITRSDPIVFTDSPKAQGDISYFFGED”, “soluble”.

As for “GAMAGMNIKDRTSEFQQSVLSYKKRNKNFREQQRERLQEKESENFANNTT”, the “soluble on expression in E. coli” value is given as “soluble”.

“GAMATGSRIGGGIDVPVPRHSVGVVIGRSGEMIKKIQNDAGVRIQFKQDDGTGPEKIAHIMGPPDRCEHAARIINDLLQSLRSGPPGPPGGPGMPPGGRGRGRGQG”: the “soluble on expression in E. coli” value is “soluble”. Under “GAMDPMIIRGIRGARINNEIFNLGLKFQILNADVVATKKHVLHAINQAKTKKPIAKSFWMEILVRASGQRQIHEAIKIIGAKDGNVCLICEDEETFRKIYELIGGEIDDSVLEINEDKERLIREIFKIRGFGNVVERVLEKIALIELKKE” stands “soluble”; under “GAMDPMKAKRVQAKIEMEFPSEDVAKVVYEAVLYEHLSVPYRRSEIDFKLEGKKIILDIKATDSSALRGTVNSYLRWIKAAIDVIEV”, “soluble”; under “GAMERKANYAVDAYFREALRVSEPKAPKAPRPPKQPIVQDFQFFPPRLFELLDQEIYYFRKTVGYKVPKNTELGSDATKVQREEQRKIDEAEPLTEEEIQEKENLLSQGFTAWTKRDFNQFIKANEKYGRDDIDNIAKDVEGKTPEEVIEYNAVFWERCTELQDIERIMGQIERGEGKIQRRLSIKKALDQKMSRYRAPFHQLRLQYGNNKGKNYTEIEDRFLVCMLHKLGFDKENVYEELRAAIRASPQFRFDWFIKSRTALELQRRCNTLITLIERENIELEEKERAEKKKKAPKGSVSAGS”, “soluble”.

On to “GAMGDPGLVSAYGAGLEGGVTGNPAEFVVNTSNAGAGALSVTIDGPSKVKMDCQECPEGYRVTYTPMAPGSYLISIKYGGPYHIGGSPFKAKVTGPRLV”, for which the “soluble on expression in E. coli” value is on record as “soluble”. Under “GAMGMQQGQMAYDRAITVFSPDGRLFQVEYAREAVKKGSTALGMKFANGVLLISDKKVRSRLIEQNSIEKIQLIDDYVAAVTSGLVADARVLVDFARISAQQEKVTYGSLVNIENLVKRVADQMQQYTQYGGVRPYGVSLIFAGIDQIGPRLFDCDPAGTINEYKATAIGSGKDAVVSFLEREYKENLPEKEAVTLGIKALKSSLEEGEELKAPEIASITVGNKYRIYDQEEVKKFL” stands “soluble”; under “GAMGSIQENLIFPMDNPKGIDGFTNLKEKDIATNENKLLRTITADKMIPAFLITPISSQIAGKVIAQVESDIFAHMGKAVLIPKGSKVIGYYSNNNKMGEYRLDIVWSRIITPHGINIMLTNAKGADIKGYNGLVGELIERNFQRYGVPLLLSTLTNGLLIGITSALNNRGNKEGATNFFGDYLLMQLMRQSGMGINQVVNQILRDKSKIAPIVVIREGSRVFISPNTDIFFPIPRENEVIAEFLK”, “soluble”; under “GAMGSQQIATAKDKYEWLVSRIVKNHNENWLSVSRKMQASPEYQDYVYLEGTQKAKKLFLQHIHRLKHE”, “soluble”. Under “GAMTKPRFTTGLVYDTLMLKHQCTAGSSSSHPEHAGRIQSIWSRLQETGLRGKCEAIRGRKATLEELQTVHSEAHTLLYGTNPLNRQKLDSKKLLGSLASVFVRLPCGGVGVDSDTIWNEVHSAGAARLAVGCVVELVFKVATGELKNGFAVVRPPGHHAEESTPMGFCYFNSVAVAAKLLQQRLSVSKILIVDWDVHHGNGTQQAFYSDPSVLYMSLHRYDDGNFFPGSGAPDEVGTGPGVGFNVNMAFTGGLDPPMGDAEYLAAFRTVVMPIASEFAPDVVLVSSGFDAVEGHPTPLGGYNLSARCFGYLTKQLMGLAGGRIVLALEGGYDLTAICDASEACVSALLGNELDPLPEKVLQQRPNANAVRSMEKVMEIHSKYWRCLQRTTSTAGRSLIEAQTCENEEAETVT” stands “soluble”; under “GAPLKAVSAFAPPLHTQDFNLYSGEVHAHFTDYEAGMAFARQENKPVLLDFSGHGCVNCRKMENAVWIDPTVKSMLEKDYVLITLMVDEKKPLAEPLTIVFDGKEKTLRTVGDKWSYLQSHKFGANAQPFYVAIDHEGKPLSASYSYNEDVPLYVDFLKGGLQEFKKRKNK”, “not soluble”.

Take “GAQNQDCAFFFPNQEGEQITRNCYTADGKLTNILVYRVDQAYEYPSGMEVVANYTFADAAGKTLNSGQMVARCSDGNFSMSMGDVATFPTALNMMNADVYMMGDLMNYPDAFSNPMNPGDDDEFDDGTLRLYQKGNKNNRAEISVFDREFVTTETVNTPAGAFYCTKVKYEMNIWTPKETIKGYGYEWYAPNIGIVRSEQYNNKKELQSYSVLERIKK”: the “soluble on expression in E. coli” value is recorded as “soluble”. In the case of “GASLAPLRRMREVAARVSANSLTTRLDASRMPEELRGLAGELNAMLARLEEAFQRLSAFSADIAHELRTPLTSLLTQTQVVLSRPRSLEDYREALHGNLEELERLTAMVNDMLLLAKADHGLLAPSRQALDLGAEVDSLLEFYQPLAEDRDIRLLREGSLSLPGDRGMLRRVLANLLDNALRFTADGGEIRIRLGDRRLSVENQGPAIPPERLPRLFDRFYRADPARREGQGEHAGLGLAICRSIVQAHGGEIRCESADGWTRFVIDFAR” it was “not soluble”. In the case of “GASSLKDEVPTETSEDFGFKFLGQKQILPSFNEKLPFASLQNLDISNSKSLFVAASGSKAVVGELQLLRDHITSDSTPLTFKWEKEIPDVIFVCFHGDQVLVSTRNALYSLDLEELSEFRTVTSFEKPVFQLKNVNNTLVILNSVNDLSALDLRTKSTKQLAQNVTSFDVTNSQLAVLLKDRSFQSFAWRNGEMEKQFEFSLPSELEELPVEEYSPLSVTILSPQDFLAVFGNVISETDDEVSYDQKMYIIKHIDGSASFQETFDITPPFGQIVRFPYMYKVTLSGLIEPDANVNVLASSCSSEVSIWDSKQVIEPSQDSERAVLPISEETDKDTNPIGVAVDVVTSGTILEPCSGVDTIERLPLVYILNNEGSLQIVGLFHVAAIKS” it was “soluble”; in that of “GDIVAVHPIRRGTAEAIEVVAHGDKKTSAIIGRRISGIKWPEGCHIAAVVRAGTGETIMGHHTETVIQDGDHIIFFVSRRRILNELEKLIQVKMGFFG”, “not soluble”. Under “GDKLLPKTLSKEIVSEPFAKNQLREKARLTNIKGLEIPRVSYTLDDDDFITDVETAKELKAKGDTVKFTTNKFKVFAAISDTVIHGSDVDLVNWVENALQSGLAAKERKDALAVSPKSGLEHMSFYNGSVKEVEGADMYDAIINALADLHEDYRDNATIYMRYADYVKIISVLSNGTTNFFDTPAEKVFGKPVVFTDAAVKPIVGDFNYFGINYDGTTYDTDKDVKKGEYLFVLTAWYDQQRTLDSAFRIAKA” stands “soluble”; under “GEGSPVGIAILGYGTVGSQVLRLLTENHNDFQHRAGGPLEIKGVAASSVEKHRGSLADQLGLLTDDARSLIARDDVDIVVEVIGGIDYPRELILEALHSGKSVVTANKALVAAHSEELAAAADEAGVDLYFEAAVAAAIPVLGPLRRSLAGDQIQSVAGIVNGTTNFILDAMDSTGASYDDMLAEATRLGYAEADPTADVEGHDAASKAAILASLAFHTRVTYADVYCEGISKITADDINAAKEAGFTIKLLAICERLNVDGVEKVSARVHPTLVPRNHPLASVDKSFNAIFVEAEAAGRLMFYGNGAGGNPTASAVLGDIVGAARNKVFGGRAPGESTYADLPIAPFGEVPTRFHIDMEVEDRVGVLADLAKTFSNHGISLRTVRQAEKDGHARLIVVTHTAKESELEATVEQIKNSDSVKKINSVIRLAG”, “not soluble”; under “GETASSLWIDAAVAVSVPFQLNSVADRMNQGFSRLYQAYLLSRLRRIFLKKLNHLNNSPFSKSDLLSLKTFWDFDERITAPINGFKNAHEYYQKASSRQYLKNITTPTLIIHAQDDPFMTPDAIPASKELSSQTTLELSEYGGHVGFIAGTGKNSSQPVYWLEQRIPEFLLEYLS”, “not soluble”. Turning to “GFKVIMVTDVGGLGDKSFNDGTWAGIKQAAEELGIEAKVIQSYEQSDYIPNLSKAAEEADLVFAVGFMMTNDLFKVAKQYPDTYFVGIDITPPEGQILPNVLTFTFKEQEAAFLVGYVAAAMTKTGMVGFVGGIPIPPVERFRYGYEAGIKTYSVLHKKNVKILRGYTQDFEDPKKGKDLAMSQFAEGADIVFHASGACGNGVIEAAREKFSALAGSDKLVDLIDYYTTNGKGFFAIGVDMDQDYMAPGAVLTSAMKRVD”, the “soluble on expression in E. coli” value is on record as “soluble”. In the case of “GGDVLERQMALMAQAAQRVQDMKRFVWDSLDSMPEPVVVTDLAGTVLIANHAAKRYCARLSAPAPEGRPLRVAFGELSFVKTVDGNAEQDVEIRSHWPAALDPTRDYENDVMERGIEVRDLSGLDHLLRYAPCTNAQGNVTGWIASLVDVTALHAAERQREEALHLLSHDM” it was “soluble”.

The record behind these values is the DeepSol protein solubility set.
